From patent US20250136683A1 (SINOMAB BIOSCIENCE, published 2025)

Tests used:
[1] = molecular target: T1, recombinant human CD22 encompassing domains 2-4 (CD22d2-4) (human, UniProt P20273 139-417); experiment: direct ELISA, plate coated with CD22d2-4
T1 construct: also called domain 2-4 of recombinant human CD22 antigen

[2] = molecular target: T2, LRID (murine IgG anti-idiotype antibody against the antigen binding site of SM03 and SM06); experiment: direct ELISA, plate coated with LRID
T2 construct: An scFv from a phage library, re-engineered as a murine IgG; also called anti-idiotype antibody for SM03; surrogate antigen for CD22
T2 sequence (VH, as listed by the source, chain 1 of 2): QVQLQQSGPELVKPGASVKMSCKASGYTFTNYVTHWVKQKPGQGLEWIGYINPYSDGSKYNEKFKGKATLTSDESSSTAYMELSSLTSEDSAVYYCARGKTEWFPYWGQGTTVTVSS
T2 sequence (VL, as listed by the source, chain 2 of 2): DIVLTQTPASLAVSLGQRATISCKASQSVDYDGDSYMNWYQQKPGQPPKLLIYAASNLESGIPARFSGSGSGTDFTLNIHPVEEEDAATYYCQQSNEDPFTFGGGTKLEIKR

[3] = molecular target: T3, human recombinant CD22 (PeproTech) (human, UniProt P20273 20-687, limits assumed); experiment: SPR (BIAcore), CD22 immobilized on CM5 chip, SM03 injected
T3 construct: Bought protein immobilized on a CM5 chip; also called recombinant human CD22 antigen; human CD22 antigen
Method: Affinity of anti-CD22 antibodies against human CD22 was performed using BIAcore (GE Healthcare Life Sciences, Piscataway, NJ) according to standard procedures. Briefly, human recombinant CD22 (20 μg/ml, PeproTech, Rocky Hill, NJ) was immobilized on carboxymethylated dextran-coated CM5 sensor chip. The chip surface was firstly activated with N-ethyl-N′-(3-[…]) carbodiimide hydrochloride (EDC) and N-hydroxysuccinimide (NHS). […] The dissociation was studied by washing with running buffer for 3 min. The chip surface was then regenerated by injection with 50 mM glycine-Cl for 60 s. Kinetic parameters including ka (association rate constant) and kd (dissociation rate constant) were estimated using the BIA evaluation software. The specific binding curves were normalized by subtracting the control curve.

[4] = molecular target: T1, recombinant human CD22 encompassing …; experiment: ELISA, plate coated with refolded CD22d2-4, % Binding
Method: Preliminary epitope mapping was done by expressing different combinations of extracellular domains encompassing the human CD22 sequence in bacteria and the refolded recombinant proteins were tested for binding to SM03 in an ELISA assay. […] There are 6 extracellular domains for human CD22 antigen that are expressed on the surface of matured B cells. […] Briefly, the DNA sequence encoding different domain regions of human CD22 were cloned into a pET bacterial expression vector preceded with a pelB sequence (as described in Ward et al. (1989) Nature 341:544-546). The expression vectors were used to transform bacterial host cell BL21 (DE3) pLysS (Promega, Madison, WI) using standard techniques in molecular biology: expression of the transfected genes were induced by the addition of 1 mM of isopropyle β-D-thiogalactoside (IPTG). After incubating at 37° C. for 4 hours with orbital shaking at 250 rpm, the bacteria were pelleted by centrifugation at 6,000 rpm for 15 minutes. Cells were lysed in lysis buffer (50 mM Tris-HCl, pH 8 containing 0.1 M NaCl, 5 mM EDTA, 0.1% NaN₃, 0.5% TritonX-100, 100 μM PMSF and 1 mM DTT) with the aid of a glass homogenizer. After French press treatment, 2.5 mM MgCl₂ was added to chelate the EDTA, and 0.1 mg/ml Lysozyme and 0.01 mg/ml DNase were added and the mixture was incubated at room temperature for 20 minutes. […]

[5] = molecular target: LRID Fab fused to the transmembrane portion of glycophorin A, on SP2/0 cells (Fab-GlycoA); experiment: cell-based or functional assay
Sequence of LRID Fab fused to the transmembrane portion of glycophorin A, on SP2/0 cells (Fab-GlycoA) (VH, as listed by the source, chain 1 of 2): as the sequence (VH, as listed by the source, chain 1 of 2) above
Sequence of LRID Fab fused to the transmembrane portion of glycophorin A, on SP2/0 cells (Fab-GlycoA) (VL, as listed by the source, chain 2 of 2): as the sequence (VL, as listed by the source, chain 2 of 2) above

[6] = molecular target: LRID Fab fused to the GPI signal sequence from decay accelerating factor (DAF), on SP2/0 cells (Fab-GPI); experiment: cell-based or functional assay
Sequence of LRID Fab fused to the GPI signal sequence from decay accelerating factor (DAF), on SP2/0 cells (Fab-GPI) (VH, as listed by the source, chain 1 of 2): as the sequence (VH, as listed by the source, chain 1 of 2) above
Sequence of LRID Fab fused to the GPI signal sequence from decay accelerating factor (DAF), on SP2/0 cells (Fab-GPI) (VL, as listed by the source, chain 2 of 2): as the sequence (VL, as listed by the source, chain 2 of 2) above

| Binder | EC50 [1] | EC50 [2] | Ka [3] | Kd [3] | koff [3] | kon [3] | EC50 (read off the curve) [4] | CMC killing of surrogate target cells, EC50 [5] | CMC killing of surrogate target cells, EC50 [6] |
| --- | --- | --- | --- | --- | --- | --- | --- | --- | --- |
| SM06 (antibody, V domains shown, Framework-patched (humanized) anti-CD22 antibody with human constant regions; also called framework-patched (humanized) version of SM03) VH: EVQLVESGGGLVQPGGSLRLSCAASGFSFSIYDMSWVRQAPGKGLEWVAYISSGGGTTYYPDTVKGRFTISRDNAKNSLYLQMNSLRVEDTALYYCARHSGYGSSYGVLFAYWGQGTLVTVSS VL: DIQLTQSPSSLSASVGDRVTISCRASQDISNYLNWYQQKPGKAPKLLIYYTSILHSGVPSRFSGSGSGTEFTLTISSLQPEDFATYFCQQGNTLPWTFGGGTKVEIKR | 0.14 µg/mL | 0.065 µg/mL |  |  |  |  |  |  |  |
| SM03 (antibody, V domains shown, Chimeric antibody against human CD22: murine variable regions with human constant regions; The embodiments speak of an IgG1 heavy chain and kappa light chain constant region; also called anti-CD22 antibody SM03; chimeric anti-CD22 antibody) VH: QVQLQESGGGLVKPGGSLKLSCAASGFAFSIYDMSWVRQTPEKRLEWVAYISSGGGTTYYPDTVKGRFTISRDNAKNTLYLQMSSLKSEDTAMYYCARHSGYGSSYGVLFAYWGQGTLVTVSS VL: DIQLTQTTSSLSASLGDRVTISCRASQDISNYLNWYQQKPDGTVKLLIYYTSILHSGVPSRFSGSGSGTDYSLTISNLEQEDFATYFCQQGNTLPWTFGGGTKLEIKR | 0.1 µg/mL | 0.08 µg/mL | 8.2e+08 M⁻¹ | 1.22 nM | 0.0137 s⁻¹ | 1.13e+07 M⁻¹ s⁻¹ | ~0.02 µg/mL | 130 µg/mL | 220 µg/mL |
